Measured values published in patent US20220402995A1 (TOSOH, published 2022).

Biological target: T1, AAV2-EGFP (AAV vector of serotype 2 carrying an EGFP gene) (AAV2, UniProt P03135 1-735; P03135 1-598; P03135 1-533)
T1 construct: Genome-containing AAV2 particle; amounts counted as vector genomes (VG) by qPCR
Experiment: column of AVR5eHC immobilised on gel; cell extract with AAV2-EGFP applied, elution at pH 2.5

T1 sequence (P03135 whole entry, chain 1 of 3, the tested form may be a part): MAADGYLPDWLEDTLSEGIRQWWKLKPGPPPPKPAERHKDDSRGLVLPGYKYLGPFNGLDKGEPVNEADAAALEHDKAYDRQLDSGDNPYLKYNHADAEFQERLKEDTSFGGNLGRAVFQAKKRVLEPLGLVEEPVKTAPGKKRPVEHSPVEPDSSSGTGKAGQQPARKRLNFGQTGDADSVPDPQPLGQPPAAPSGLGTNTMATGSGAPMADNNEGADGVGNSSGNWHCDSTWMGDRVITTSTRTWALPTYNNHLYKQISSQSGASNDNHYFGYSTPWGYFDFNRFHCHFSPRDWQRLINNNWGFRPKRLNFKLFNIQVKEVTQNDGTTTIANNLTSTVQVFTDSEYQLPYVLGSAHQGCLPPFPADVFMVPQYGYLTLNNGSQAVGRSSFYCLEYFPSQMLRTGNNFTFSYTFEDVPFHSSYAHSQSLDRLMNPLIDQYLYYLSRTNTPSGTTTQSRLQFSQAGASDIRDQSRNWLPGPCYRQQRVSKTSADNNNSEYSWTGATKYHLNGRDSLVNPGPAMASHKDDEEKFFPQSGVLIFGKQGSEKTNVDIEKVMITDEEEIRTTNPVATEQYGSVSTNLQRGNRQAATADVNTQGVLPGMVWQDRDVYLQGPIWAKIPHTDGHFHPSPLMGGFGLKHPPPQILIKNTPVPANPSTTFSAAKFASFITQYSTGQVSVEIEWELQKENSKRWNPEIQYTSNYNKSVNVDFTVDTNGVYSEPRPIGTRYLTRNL
T1 sequence (P03135 139-735, tags left off, chain 2 of 3): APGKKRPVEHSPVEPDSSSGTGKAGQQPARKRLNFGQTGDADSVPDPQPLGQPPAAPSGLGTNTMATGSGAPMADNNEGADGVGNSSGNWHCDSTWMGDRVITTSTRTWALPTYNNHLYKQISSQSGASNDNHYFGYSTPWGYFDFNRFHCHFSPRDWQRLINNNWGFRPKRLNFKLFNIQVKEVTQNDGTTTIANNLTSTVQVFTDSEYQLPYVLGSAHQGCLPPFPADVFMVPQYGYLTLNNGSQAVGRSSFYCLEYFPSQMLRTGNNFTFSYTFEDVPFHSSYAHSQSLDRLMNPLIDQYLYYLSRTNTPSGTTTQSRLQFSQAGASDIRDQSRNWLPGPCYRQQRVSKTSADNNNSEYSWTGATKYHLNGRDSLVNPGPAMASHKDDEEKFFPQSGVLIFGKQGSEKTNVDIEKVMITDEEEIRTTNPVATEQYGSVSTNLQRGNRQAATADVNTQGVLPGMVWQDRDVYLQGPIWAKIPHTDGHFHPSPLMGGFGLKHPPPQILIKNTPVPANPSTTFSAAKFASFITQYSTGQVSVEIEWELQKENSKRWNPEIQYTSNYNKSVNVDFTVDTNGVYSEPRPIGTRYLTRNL
T1 sequence (P03135 203-735, chain 3 of 3): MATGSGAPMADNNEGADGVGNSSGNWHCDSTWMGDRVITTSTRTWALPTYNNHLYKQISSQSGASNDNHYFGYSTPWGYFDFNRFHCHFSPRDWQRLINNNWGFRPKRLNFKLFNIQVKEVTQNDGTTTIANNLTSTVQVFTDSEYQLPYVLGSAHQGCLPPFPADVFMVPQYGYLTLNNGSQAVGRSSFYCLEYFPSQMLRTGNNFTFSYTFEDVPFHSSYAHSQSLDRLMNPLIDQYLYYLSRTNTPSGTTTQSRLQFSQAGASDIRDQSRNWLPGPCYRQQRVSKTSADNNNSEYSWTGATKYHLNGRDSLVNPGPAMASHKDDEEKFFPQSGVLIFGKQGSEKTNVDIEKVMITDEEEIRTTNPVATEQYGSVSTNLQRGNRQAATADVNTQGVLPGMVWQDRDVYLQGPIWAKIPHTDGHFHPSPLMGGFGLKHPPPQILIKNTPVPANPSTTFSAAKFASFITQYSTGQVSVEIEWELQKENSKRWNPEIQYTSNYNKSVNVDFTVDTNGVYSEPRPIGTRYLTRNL

B1: AVR5eHC (AVR5e with a cysteine tag for immobilization at the C-terminus) (receptor)
chain: MGSAGESVQITLPKNEVQLNAYVLQEPPKGETCTYDWQLITHPRDYSGEMEGKHSQILKLSKLTPGLYEFKVIVEGQNAHSEGYVNVTVEPEPRKNRPPIAIVSPQFQEISLPTTSTVIDGSQSTDDDKIVQYHWEELKGPLREEKISEDTAILKLSKLVPGNYTFRLTVVDSDGATDSTTANLTVNKAVDHHHHHHCRNDTCG
notes: also called AVR5e-immobilized gel; AVR5e column
Does B1 bind?
Result: binds
